Assay results taken from the Immune Epitope Database (IEDB).
pIC50, pKd: −log10 of the molar value.

Columns and labels:
HLA-A*31:01 = experiment: IEDB peptide-MHC binding, purified MHC/direct/fluorescence; filed as Kd, often an IC50 or EC50 that approximates it; ≥ and ≤ were set here for values at or beyond the usual limits of such assays
HLA-B*07:02 = experiment: as above
HLA-A*03:01 [1] = experiment: as above
HLA-A*69:01 = experiment: as above
HLA-B*08:01 = experiment: as above
HLA-B*73:01 = experiment: as above; details: source organism: Campylobacter jejuni RM1221
HLA-A*68:02 = experiment: as above
HLA-A*01:01 [2] = experiment: as above
HLA-B*15:01 [3] = experiment: as above
HLA-B*27:05 = experiment: as above
HLA-B*15:17 = experiment: as above
HLA-B*57:01 = experiment: as above
HLA-B*58:01 = experiment: as above
HLA-B*48:01 = experiment: as above; details: source organism: Campylobacter jejuni RM1221
HLA-A*02:01 [4] = experiment: as above
HLA-B*18:01 [5] = experiment: as above; details: source organism: Campylobacter jejuni RM1221
HLA-A*11:01 [6] = experiment: IEDB peptide-MHC binding, purified MHC/competitive/fluorescence; filed as Kd, often an IC50 or EC50 that approximates it; ≥ and ≤ were set here for values at or beyond the usual limits of such assays; details: source organism: Campylobacter jejuni subsp. jejuni NCTC 11168 = ATCC 700819
HLA-B*46:01 = experiment: IEDB peptide-MHC binding, purified MHC/direct/fluorescence; filed as Kd, often an IC50 or EC50 that approximates it; ≥ and ≤ were set here for values at or beyond the usual limits of such assays
HLA-B*15:02 = experiment: as above
HLA-A*24:02 [7] = experiment: as above; details: source organism: Mammarenavirus lassaense
HLA-B*08:03 = experiment: as above; details: source organism: Mammarenavirus lassaense
HLA-A*26:01 = experiment: as above
HLA-A*11:01 [8] = experiment: as above
HLA-A*23:01 = experiment: as above; details: source organism: Mammarenavirus lassaense
HLA-A*24:03 = experiment: as above; details: source organism: Mammarenavirus lassaense
HLA-A*26:02 = experiment: as above; details: source organism: Mammarenavirus lassaense
HLA-A*02:06 = experiment: IEDB peptide-MHC binding, purified MHC/competitive/fluorescence; filed as Kd, often an IC50 or EC50 that approximates it; ≥ and ≤ were set here for values at or beyond the usual limits of such assays; details: source organism: Mammarenavirus lassaense
HLA-B*18:01 [9] = experiment: as above; details: source organism: Mammarenavirus lassaense
HLA-A*01:01 [10] = experiment: IEDB peptide-MHC binding, purified MHC/competitive/fluorescence; ≥ and ≤ were set here for values at or beyond the usual limits of such assays
HLA-A*02:01 [11] = experiment: as above
HLA-B*35:01 = experiment: IEDB peptide-MHC binding, purified MHC/direct/fluorescence; filed as Kd, often an IC50 or EC50 that approximates it; ≥ and ≤ were set here for values at or beyond the usual limits of such assays; details: source organism: Burkholderia mallei ATCC 23344
HLA-A*02:01 [12] = experiment: IEDB peptide-MHC binding, cellular MHC/competitive/fluorescence; ≥ and ≤ were set here for values at or beyond the usual limits of such assays
HLA-A*24:02 [13] = experiment: IEDB peptide-MHC binding, purified MHC/competitive/fluorescence; ≥ and ≤ were set here for values at or beyond the usual limits of such assays; details: source organism: Zaire ebolavirus
HLA-A*03:01 [14] = experiment: as above; details: source organism: Zaire ebolavirus
HLA-A*11:01 [15] = experiment: as above; details: source organism: Zaire ebolavirus
HLA-B*15:01 [16] = experiment: as above; details: source organism: Zaire ebolavirus
HLA-B*40:01 = experiment: IEDB peptide-MHC binding, purified MHC/direct/fluorescence; filed as Kd, often an IC50 or EC50 that approximates it; ≥ and ≤ were set here for values at or beyond the usual limits of such assays; details: source organism: Vibrio parahaemolyticus
HLA-B*44:02 = experiment: as above; details: source organism: Vibrio parahaemolyticus
HLA-A*80:01 = experiment: as above; details: source organism: Francisella tularensis subsp. holarctica LVS
HLA-C*08:02 = experiment: as above; details: source organism: Francisella tularensis subsp. tularensis FSC198
HLA-B*15:42 = experiment: IEDB peptide-MHC binding, purified MHC/competitive/fluorescence; filed as Kd, often an IC50 or EC50 that approximates it; ≥ and ≤ were set here for values at or beyond the usual limits of such assays; details: source organism: Francisella tularensis subsp. tularensis FSC198
HLA-B*45:06 = experiment: as above; details: source organism: Francisella tularensis subsp. tularensis FSC198
HLA-B*83:01 = experiment: as above; details: source organism: Francisella tularensis subsp. tularensis FSC198
HLA-C*14:02 = experiment: as above; details: source organism: Francisella tularensis subsp. tularensis FSC198
HLA-C*04:01 = experiment: as above; details: source organism: Francisella tularensis subsp. tularensis FSC198
[17] = source organism: Campylobacter jejuni RM1221
[18] = source organism: Orthohantavirus hantanense
[19] = source organism: Mammarenavirus lassaense
[20] = source organism: Burkholderia mallei ATCC 23344
[21] = source organism: Burkholderia mallei
[22] = source organism: Zaire ebolavirus
[23] = source organism: Vibrio parahaemolyticus

AKYEICLEK
pKd (HLA-A*31:01; [17]): ≤ 4.70 | pKd (HLA-B*07:02; [17]): ≤ 4.70 | pKd (HLA-A*03:01 [1]; [17]): ≤ 4.70 | pKd (HLA-A*69:01; [17]): ≤ 4.70 | pKd (HLA-B*08:01; source organism: Campylobacter jejuni subsp. jejuni 81-176): ≤ 4.70 | pKd (HLA-B*73:01): ≤ 4.70 | pKd (HLA-A*68:02; [17]): ≤ 4.70 | pKd (HLA-A*01:01 [2]; [17]): ≤ 4.70 | pKd (HLA-B*15:01 [3]; [17]): ≤ 4.70 | pKd (HLA-B*27:05; [17]): ≤ 4.70 | pKd (HLA-B*15:17; [17]): ≤ 4.70 | pKd (HLA-B*57:01; [17]): ≤ 4.70 | pKd (HLA-B*58:01; [17]): ≤ 4.70 | pKd (HLA-B*48:01): ≤ 4.70 | pKd (HLA-A*02:01 [4]; [17]): ≤ 4.70 | pKd (HLA-B*18:01 [5]): ≤ 4.70 | pKd (HLA-A*11:01 [6]): ≤ 4.70

FQHERLGQF
pKd (HLA-B*46:01; [18]): 6.11 | pKd (HLA-B*15:01 [3]; [18]): 7.69 | pKd (HLA-B*15:02; source organism: Hantaan virus Q32): 7.54

GYAWIDFDI
pKd (HLA-A*24:02 [7]): 8.43 | pKd (HLA-A*31:01; [19]): ≤ 4.70 | pKd (HLA-B*07:02; [19]): ≤ 4.70 | pKd (HLA-B*08:03): ≤ 4.70 | pKd (HLA-B*08:01; [19]): ≤ 4.70 | pKd (HLA-A*26:01; [19]): ≤ 4.70 | pKd (HLA-A*68:02; [19]): ≤ 4.70 | pKd (HLA-A*11:01 [8]; [19]): ≤ 4.70 | pKd (HLA-A*23:01): 8.41 | pKd (HLA-A*01:01 [2]; [19]): ≤ 4.70 | pKd (HLA-B*15:01 [3]; [19]): ≤ 4.70 | pKd (HLA-A*24:03): 8.47 | pKd (HLA-A*26:02): ≤ 4.70 | pKd (HLA-B*15:17; [19]): ≤ 4.70 | pKd (HLA-B*57:01; [19]): ≤ 4.70 | pKd (HLA-B*58:01; [19]): ≤ 4.70 | pKd (HLA-A*02:01 [4]; [19]): ≤ 4.70 | pKd (HLA-A*02:06): ≤ 4.70 | pKd (HLA-B*18:01 [9]): 6.39

KIDSMFLMT
pIC50 (HLA-A*01:01 [10]; source organism: Variola virus): ≤ 3.98 | pIC50 (HLA-A*02:01 [11]; source organism: Variola virus): 6.25

MMYASWGVH
pKd (HLA-B*35:01): 5.57 | pKd (HLA-B*07:02; [20]): ≤ 4.70 | pKd (HLA-B*46:01; [21]): 5.42 | pKd (HLA-B*15:01 [3]; [21]): 8.09 | pKd (HLA-B*15:02; [20]): 8.52

SLLDKIIGA
pIC50 (HLA-A*02:01 [12]; source organism: Homo sapiens): 4.82

SLPKTSGHY
pIC50 (HLA-A*24:02 [13]): 4.32 | pIC50 (HLA-A*03:01 [14]): ≤ 4.04 | pIC50 (HLA-A*11:01 [15]): ≤ 3.98 | pIC50 (HLA-A*01:01 [10]; [22]): 4.42 | pIC50 (HLA-B*15:01 [16]): 5.40 | pIC50 (HLA-A*02:01 [11]; [22]): ≤ 3.43

VQGYERIMY
pKd (HLA-A*31:01; [23]): ≤ 4.70 | pKd (HLA-B*07:02; [23]): ≤ 4.70 | pKd (HLA-A*03:01 [1]; [23]): ≤ 4.70 | pKd (HLA-A*69:01; [23]): ≤ 4.70 | pKd (HLA-B*08:01; [23]): ≤ 4.70 | pKd (HLA-B*40:01): ≤ 4.70 | pKd (HLA-A*26:01; [23]): ≤ 4.70 | pKd (HLA-B*46:01; [23]): ≤ 4.70 | pKd (HLA-B*44:02): ≤ 4.70 | pKd (HLA-A*11:01 [8]; [23]): ≤ 4.70 | pKd (HLA-A*01:01 [2]; [23]): ≤ 4.70 | pKd (HLA-B*15:01 [3]; [23]): 6.57 | pKd (HLA-B*27:05; [23]): ≤ 4.70 | pKd (HLA-B*58:01; [23]): ≤ 4.70 | pKd (HLA-A*02:01 [4]; [23]): ≤ 4.70 | pKd (HLA-B*15:02; [23]): ≤ 4.70

YMDDLYVGSD
pIC50 (HLA-A*02:01 [12]; source organism: Human immunodeficiency virus 1): 5.10

YTDKIAMSY
pKd (HLA-A*80:01): 9.30 | pKd (HLA-A*01:01 [2]; source organism: Francisella tularensis subsp. holarctica LVS): ≥ 9.00 | pKd (HLA-C*08:02): 6.19 | pKd (HLA-B*15:42): ≤ 5.30 | pKd (HLA-B*45:06): ≤ 5.30 | pKd (HLA-B*83:01): ≤ 5.30 | pKd (HLA-C*14:02): 7.16 | pKd (HLA-C*04:01): ≤ 5.30
